Literature values as cited in paper PMC6473736.

Target: Nterm (UniProt position 2, ----MVHLTPE)
Settings: not stated (haem ligation state not given)

Question: With “Human haemoglobin (adult Hb, alpha2beta2) (Homo sapiens)” as the substance, how does the pKa read?
Answer: Its pKa is “approximately 7.8 (α-chain) and 6.8 (β-chain)”.
